Test results from the DeepSol protein solubility set.

Experiment: soluble on expression in E. coli; label from the status in PepcDB or PDB records

Soluble on expression in E. coli, not soluble:
MGSDKIHHHHHHMTPDSSPSSVDDPLFESGHRIFANKDLLKIGHVPEADRIVGRDEEISKLAKRLNGAVHGYSPENVMIYGKTGTGKSLVSKHVCQRAQNAAQDGVEIGTAYIDCAEDNTETQAISSLAAKLNDESSTGISVPHTGLSTSKYYKLLWKTLDAQFDSVIIILDEIDLMNDDSVLMKLSRAEEAGKIDCSVGVIAISNKIQYVDNVNERVKSSFQHKELFFKPYDANQLREIMFNREDAFQDGVLSEDVIPLSAAFAAQEHGDARKAIDILRHAGEVAYEAGAELVTEEHVRQAQQHAEKDRFRELVNGAPTQAKAALLALTELSVNSNDDAFLTSRVYDQYEHICNHLDMDILSVRRFRDILKEQAFLGVVEIEKINKGSAGGIHLQNRLIEDSQVVRETILEDSRMQDWTRE
MGSDKIHHHHHHMTQCPLVSISCLTYNHAPYLRQCLDGFVMQITSFPIEILIYDDASGDGTQNIIEEYQKKYPDIIKPIYQTENQYSKGVKVGFVYNYSRAKGEYIAFCEGDDYWTDPYKLQKQIDFLECYSDYVICSHRYRICLKEEKVMNDEIKPIGDLSDGMSFDLSFLIRGGWLFQPLSVVYRKSALDLDTYSKYAIYIDVALFYAILKNGKGYCMPDVMGVYRIHEKGVWSGLDLNHQRIFSLKAREAIYDVEKTDEAAMFILSQFSRPMGRFLVVKECSMFMRITKILISHFGLRFVLRMWFDRLFLNKKLCVNEFYQIKDFCKRKKNG
MGSDKIHHHHHHMTQDFSEIFAKYEALVADVDNVFKRVQEAHPECVTCEKGCSDCCYAVFDLSLVEAMYLNHRFGQKFSFGPERSVIVERADETDRKLVKLKRQAHRDVQNGRDAEEILQDMGRVRVRCPLLGETDGCELYEYRPITCRLYGIPTAIGGKAHSCGKSAFLAGKQYPTVNIDRIHERLAQLSLEIRDAVHSRFSELHTVLVPVSMALLTTYDDAYLGAGATAKGNE
MGSDKIHHHHHHMTQLAPDSSIINAQACLSLDEAYEACRKETAQWAKTFYLGTMLLPSIKRRAIWAIYVWCRRTDELMDSAEAQTRPVSELANRLDQWEERTRAMFAGQVLDGLDAVMADTLERFPQSIQPYLDMIEGQRMDLNQHRYATFQQLELYCYRVAGTVGLMTQHVMGLDPAYTTAPWSSSPETSDAAIALGIANQLTNILRDVGEDRGRGRIYIPQEDLDRFGYSEADLMAGRLNSAWKDLMAFQLERAREWFARSEAGVRWLSQDARWPVWASLRLYRGILDSIERLDYDVFNNRAYVSRWMKLVDLPLSYLMAQAR
MGSDKIHHHHHHMTQLLTKIRRKKIHKGLLLYRLFQQLPVQKNLVLFESFLGRGYSDNPKALYLTLQKQRPELELVWIFAKEPNAAVKAACPNWVLRNSPKYYYLMARAQYWIFNTRQPLSLKKRRETMYLQTWHGTPLKRLGLDMDEVHMPGTNTEQYKKNFSAQAKEWNYLLSPNLYSSAIFKRAFDFRGLLLETGYPRNDLLYAPDRQQQAGQIKQSLRLPPGKKVILYAPTWRDDEFVTKGQYRFNLKLDLKQIQSRLGDDYIVLLRMHYLIAEHLDLTAFDGFAYDVSAYGDIAELYLISDLLITDYSSVFFDYAHLNRPMLFFTYDLEKYASILRGFYFDFEAVVPGPLLKESDQVIDYIEDIATQSKQYEEKYTAFQERFCSLDDGKASQRVVDALFK
MGSDKIHHHHHHMTQTPKPPLTIYLAAPRGFCAGVDRAIKIVEMALEKWGAPVFVRHEIVHNKYVVDDLKAKGAVFVEELSDCPDDRPVIFSAHGVPKSVPQAAAARQMVYVDATCPLVSKVHIEAQRHSDNGLQMVMIGHKGHPETIGTMGQLPDGEVLLVETVEDVATVEVRDPSRLAFVTQTTLSVDDTIEIVEALTTRFPAIVGPHKEDICYATTNRQEAVKAMAPKAEAMLVVGAPNSSNSKRLVEVGSRAGCAYSQLVQRAADIDWRALGDIKTLGITAGASAPEVLIEEVIQAFEDRFDVTRELVETAVENVEFKVPRVLRETA
MGSDKIHHHHHHMTRGIYNAAMGMLVDMAKLDRIANDLANVDTAGYKQDREAFRAYLRREVFRQEPNPVESRTKKVPIGPLEYATVLDEVRTDLSQGPVEETDVPYHLAINGEGFFRIEFNGGEYYTRNGEFTVNSEGYIVTNYGGYLLDENGERVRFFDDFTVDEEGYVRDAYGNIVTRIGVYNLENPEKFGNTLFTGENPSPSENFRIMQGYVEKSNVDALKAMVDMISAMRHYELSQRAVTVNDELNGKLINSLASLK
MGSDKIHHHHHHMTRKNKEQPAMSNNTSSNTNGKPQKRLIIITGDKGGVGKSTFARAIFQLYINKNLPCVAYEADLRNPQIERYFQKDYRPIIRYIDIFHRGGADDLLINLDESDCPITLLDLPAQSGCFFESYVKELAFFEVLKTEINCRVTMVSVISRVLDSINVLEKLRELCKDQVDYIVVKNLFHGEEEKFERYNDSSLRQNMLAEGLIELVMPDLFYKSYDFLDRHALTFNEGQTHQETNIVIKSRIKSWVAEFEAQIKPAFNFLGFDIQPDDCYYPAVVEKSKELRENEEKEKAKNQDANLPSEDIAA
MGSDKIHHHHHHMTRTIVIDPVTRIEGHAKISVFLDDQGNAEAARFHVVEYRGFEKFCEGRPFTEMAGITARICGICPVSHLLAAAKTGDKILAVQIPPAAENLRRLINLAQIIQSHALSFFHLSSPDFLLGWDSDPARRNLFGLIAADPETARAGIRLRQFGQQLIEWLGGRKIHAAWAVPGGVRSLLSQEGMVWIRDRLPAELATVRATLDRFKRLLDREFREETAVFGDFPSLFMGLVADNGDWEHYGGHLRFVDSQGRIIADRLREDDYASFLGEAVEPWSYLKFPYYKPWGYPEGMYRVGPLARLNVCDRIGTAGAEAERQELRDRAGGTVTSSFLYHYARLVEILASLEKIAEMVEDPNLQTGFLRSQAGVNCLEAIGVSEAPRGTLFHHYRVDSHGKIERVNLIIATGQNNLAMNRTVTQIAQHYIRHGEVQESFLNRVEAGIRCFDPCLSCSTHTAGQMPLKIEIFDSRGELYQCLCRDL
MGSDKIHHHHHHMTSICICDDEKQQRNMLNKIITREMDLWGYPYQIKEYSNGESLVYNLEHENYYIDIIFLDIELGKSNGVDIAKTIRKHSKDTIIIFVTGFSDYVFHGYDVGALNYILKPYKTEKICKVLKEALKKLEQWKENFITVQIGTNLCKINTKDILYFKSELRKLTVVTFDKTLEYYGKLNDMETVLPSNFIRTHQRYIVNLNHVDSITQTYAKVQNEKIPISRKKYQEVVGKFTRYMLES
MGSDKIHHHHHHMTSKITRQANASEDSLLRIFTAPEDSTSTLSIIEQKLSQDLAGFLGNSIAALEKPLSEIETDFSAYQIPTEPKFVSDYADEIMQNLVAHSVHTSAPSFIGHMTSALPYFVLPLSKMMVGLNQNLVKIETSKAFTPLERQVLGMMHNLVYQQSDDFYHQWMHSANHSLGAFCSGGTVANITALWIARNRLLQPRGDFKGVTREGMTKALRFYGYDDLAILVSDRGHYSLGKTADLLGIGRDNIISIPTDEHHKVDVAAMRDAAEKLAQQNIKVMAIVGIAGTTETGNVDPLTELAALASELNCHFHVDAAWGGASLLSKKYSHLLKGIELADSVTIDAHKQMYVPMGAGMVLFKDPELAKAIVHHAEYILRVGSKDLGSQTLEGSRPGMAMLVHACLQIIGRDGYEILINNSLEKARYFGSIIDQHADFELVTAPELCLLTYRYVPKSVQAILTTALANQDSALVASINELLDGLTQFIQKHQREQGKSFVSRTRIKPAKYLRQPTTVFRVVLANPLTSHQILHDVLTEQVEIAALDSEYLPQLLAL
MGSDKIHHHHHHMTSREQIIELIKSGEFTQAELARQMGVNSGALSSYLGGKYKGNVENIENVLASWLSTRDKKEKVFVEAPHFIEIPTADKVFKALDMARFCKTIVPIFGASGVGKTKACQEYKKRYQNVWMITISPSRASLNAFLYELALELGIKDAPRRKDRLSRLILDNLKDTEGLVIVDESDHLTYDSIEELRYLQEKAEVGFALIGNNKVYTKMQGGANQAHEYARLWNRIGKKCQIKASKKGDIKAVAQAWGLDVQDKDLMTVLYDIGGKAGGLRALTQYLRLAGMTAKGQGTGITLDLILTAQAEMTGSE
MGSDKIHHHHHHMTTGKLSHAHLCGWLRFKHLTLLTTLAESRNMHATARVMHLSQPAASKMLRDLEVYFGFALFERLPRAMQPTELGEQVIRHAWILLNDMERLVDDINDLREGGYGQLLIGAIAAAAPEILPAAIARLKQARPRLSVSLQEQTSDRLLLELEHKRLDLVIGRLTHVSQHNLFDFEPLLDEPLRVVVRRDHPLTRRGEAPSLDELSHWPWILHPLSSPMRGVFESALAEEGIATPANVVETTSIQATLQLLQSSDMLAVLPRSVMRRPLAGGQYVVLERVIGKPLDYYGIITRRQEPLSPAVEELVVHLRRLAAEADGR
MGSDKIHHHHHHMTTLTFQSTTLSAIHQNNQIWLTVTEIGKALGYSDPFKSVKNIYDRHADEFTPQMTALIDMRTNGGIQKVRIFSLRGAHLIGMLSHTKVAKDFRRWVLDILDREAQQPKQLALPQPEKTYTVPLTEYRNCHLKTRVFLVHSTSYCPFLSNKKALTWRAWGWLGLFISLACICLDKIHRRE
MGSDKIHHHHHHMTTPTPVRAIVPTWLYEGLGLLVANPKVGKSTLMLQIVVAVTKGGEMWGQSVPRAKVLMIDLETNERRLRRKLEQAGAVGIESGWLLYATSWPRGLLGIDEIANTLDRDPEIKLVVIDTLQRFRDPGAGKQNAYAADYEALGPLQQLCRDRPGLAIVCVHHKRKSISDDPIDSISGSAAIAGACDSIWIMSRKGSEYTLHIQGRDWERDEDTFPIERVDQGWQLVNGPRYSSNEAEVLKHLEISGGMTGPQLGEALGIHRVSAYERLKRMADRGLVRFAGEHWHVS
MGSDKIHHHHHHMTTRERIIETAITLFNEKGTKAVTTNHIAAAMEISPGNLYYHFRNKEEIIRAIFDQMDAVGFEDYEQIIAEHPAGSLAAMEETFLMIQRFNWRYRFFKRELTSLILSDPLLREKHLRVHQAMLRLVRHSIKSSIAQGVLRPMEEDELGLFAEEIWLLTLFWLNYLEVGGEDVTESTLRRGNELVRRTVCCRLTEEGARMLGRSGPAAP
MGSDKIHHHHHHMTTVNETTSQAGLALAQAGSNSAAQGIQDQFLTLLVTQLRNQDPLNPMENAELTSQLAQISTVEGINNLKNTMLAISGQIDVSQSMDAVSMIGKGVLMPGDKVSLGADPNDPAQRGATPFGIDLQGDATKVTVKVLDPSGAVVRTMELGDLKTGVHTLQWDGNNDGGQPLADGKYSITVSASDADANPVKTEALTYGQVKSVAYSTNGLRLDLGLAGQISMLDVRKVIGASGSA
MGSDKIHHHHHHMTVKAKRFRIGVEGATTDGREIQREWLVQMAASYNPTVYTALINLEHIKSYLPESTFNRYGRVTGLVAEEIQDGPLAGKMALYADIEPTDALVELVKKGQKLFTSMEVSTKFADTGKAYLVGLGATDDPASLGTEMLAFSASAAHNPLANRKQNPENLFSEAVETLIELEEVQDEKPSLFARVTALFTKKEQTDEARFSDVHKAVELVASEQQNLSERTDKSLSEQDKRLSELESSLQEQLAAFAELEQKLSSEDSRKDYRQRAPGGDAPAGTLTNC
